Columns and labels:
[1] = target: T1, cynomolgus OX40 on activated cynomolgus monkey CD4+ T cells (cynomolgus monkey, UniProt P43489 29-277 (human entry)); experiment: flow cytometry on PHA and IL-2 activated cynomolgus monkey CD4+ T cells
T1 chain: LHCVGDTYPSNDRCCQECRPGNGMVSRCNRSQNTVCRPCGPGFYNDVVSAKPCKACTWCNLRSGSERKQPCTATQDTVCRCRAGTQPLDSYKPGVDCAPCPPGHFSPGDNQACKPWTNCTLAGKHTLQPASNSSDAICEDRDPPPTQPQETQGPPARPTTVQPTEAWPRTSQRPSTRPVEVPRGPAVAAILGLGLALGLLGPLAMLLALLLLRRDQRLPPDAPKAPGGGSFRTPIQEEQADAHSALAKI
Procedure: Cynomolgus monkey whole blood was purchased from Worldwide Primates. For isolation of PBMCs, whole blood was diluted in a 1:1 ratio with PBS without magnesium and calcium (GE Healthcare). Diluted blood (30 mL) was layered under 13 mL of 95% Ficoll-Paque Plus (GE Healthcare) prepared in PBS without magnesium and calcium (GE Healthcare) in 50-mL conical tubes. The tubes were spun at 1000 g for 25 minutes. The interphase was collected and washed twice in 1×PBS. Cells were resuspended to 2×10⁶ cells/mL in RPMI/10% FBS. Cells were incubated for […] with […] phytohemagglutinin (PHA) (Sigma) and 100 U/mL recombinant human interleukin-2 (IL-2) (Proleukin®, Prometheus) in 6-well plates. After 24 hours, cells were washed, counted and resuspended to 2×10⁶/mL. 100 μL of the cells were used per stain. Test anti-OX40 antibody was titrated in a 4-fold dilution series starting at 1 μg/mL. Cells were stained for 30 minutes and washed twice. A 1:250 dilution (4 μg/mL) of Goat anti-Human IgG Fc specific-PE (Jackson ImmunoResearch) in 100 μL PBS containing 1% BSA was added per well. Cells were stained for an additional 30 minutes and washed twice, transferred to tubes and acquired using the BD LSR Fortessa flow cytometer, and analyzed using FACSDiva analysis software version 8.0.1.

[2] = target: T2, recombinant soluble human OX40 ECD (residues 1-216) (human, UniProt P43489 29-216); experiment: SPR (Biacore T200, 25 °C), antibody captured by anti-Fc, OX40 ECD as analyte
T2 construct: Purchased from Creative Biomart and further purified by gel filtration; also called recombinant extracellular domain of human OX40
T2 sequence: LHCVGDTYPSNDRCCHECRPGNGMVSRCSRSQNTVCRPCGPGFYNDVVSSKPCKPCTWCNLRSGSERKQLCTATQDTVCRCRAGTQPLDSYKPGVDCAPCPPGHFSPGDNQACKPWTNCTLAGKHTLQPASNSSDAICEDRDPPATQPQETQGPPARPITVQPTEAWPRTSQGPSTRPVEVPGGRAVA
Procedure: The binding kinetics of an anti-OX40 antibody to recombinant soluble OX40 ECD (extracellular domain) were determined by surface plasmon resonance-based measurements made on a Biacore T200 instrument (GE Healthcare) at 25° C. using an anti-Fc capture assay approach. Recombinant extracellular domains (ECDs) of human OX40 (residues 1-216) and rhesus macaque OX40 (residues 28-214) were purchased (Creative Biomart) and further purified by gel filtration using Superdex200 (GE Healthcare) in 10 mM 4-(2-hydroxyethyl)-1-piperazineethanesulfonic acid (HEPES), pH 7.4, 150 mM NaCl, 3 mM ethylenediaminetetraacetic acid (EDTA). Rhesus macaque (Macaca mulatta) OX40 is identical to cynomolgus monkey (Macaca fascicularis) OX40 (SEQ ID NO:2) at the amino acid level. Chip preparation and binding kinetic measurements were made in the assay buffer HBS-EP+(10 mM HEPES, pH 7.4, 150 mM NaCl, 3 mM EDTA, 0.05% Tween 20). For anti-Fc capture chip preparation, approximately 2000 Resonance Units (RU) of goat anti-human IgG Fc polyclonal antibody (Thermo Fisher Scientific Inc.), diluted to 25 μg/mL in 10 mM sodium acetate (pH 4.5), was directly immobilized across a CMS biosensor chip using a standard amine coupling kit according to manufacturer's instructions and procedures. Unreacted moieties on the biosensor surface were blocked with ethanolamine. For binding kinetics measurements each assay cycle consisted of the following steps: 1) capture of test anti-OX40 antibody on test surface only; 2) analyte injection (OX40 ECD or buffer only) over both reference and test surface, 240 μL at 80 μL/min, after which the dissociation was monitored for 900 seconds at 80 μL/min; 3) regeneration of capture surface by 10 mM Glycine-HCl, pH 1.5 injections over both reference and test surface. During the assay, all measurements were referenced against the capture surface alone (i.e., with no captured test antibody) and buffer-only injections were used for double referencing. OX40 injections ranged in concentration from 900 nM or 300 nM to 11.11 nM in a randomized 9- or 3-fold dilution series, respectively. Data were processed and fitted globally to a 1:1 binding model using Biacore T200 Evaluation software to determine the binding kinetic rate constants, kₐ (M⁻¹s⁻¹) and kd (s¹), and the equilibrium dissociation constant KD (M).

Cyno OX40-Fc fusion = target: T3, Cyno OX40-Fc fusion (cynomolgus monkey, UniProt P43489 29-214 (human entry), limits assumed); experiment: ELISA on plates coated with Cyno OX40-Fc fusion
T3 construct: also called recombinant cynomolgus (cyno) OX40; not shown: Fc part of the fusion
T3 chain: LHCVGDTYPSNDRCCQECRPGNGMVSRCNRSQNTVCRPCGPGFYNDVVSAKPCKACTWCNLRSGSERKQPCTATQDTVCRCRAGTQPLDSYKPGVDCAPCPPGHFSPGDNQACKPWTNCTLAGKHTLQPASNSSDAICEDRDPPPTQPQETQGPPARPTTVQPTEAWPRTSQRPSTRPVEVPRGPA
Procedure: Immunolon 4×HB 96-well plates (Thermo Scientific) were coated with 1 μg/mL of Cyno OX40-Fc fusion at 4° C. overnight. Plates were blocked with PBS containing 1% bovine serum albumin (BSA) for 30 minutes at RT and then washed three times with PBST (PBS with 0.1% Tween 20). OX40-coated plates were then incubated with indicated concentrations of anti-OX40 antibody at room temperature for one hour. Plates were washed four times with PBST and then incubated for 1 hour at room temperature with 100 μL of goat anti-human FAB fragment specific-Biotin (Jackson ImmunoResearch) prepared to a dilution of 1:5000 in PBS containing 1% BSA. Plates were then washed five times in PBST and 100 μL of a 1:1000 dilution of streptavidin-HRP (Thermo Scientific) was added to each well and incubated for 30 minutes at room temperature. Plates were then washed five times in PBST and 100 μL of TMB One component (Surmodics) were added to each well and incubated at room temperature until color developed (approximately 5-10 minutes). Optical density (OD) was read at 650 nm (Molecular Devices Spectromax190).

B1: Hu3738 (antibody, V domains shown)
VH: EVQLVESGGGLVQPGGSLRLSCAASGFTFSRYGMSWVRQAPGKGLELVATINSNGGRTYYPDSVKGRFTISRDNAKNSLYLQMNSLRAEDTAVYYCAREGITTAYAMDYWGQGTTVTVSS
VL: DIVMTQSPDSLAVSLGERATINCKASQSVDYDGDSYMHWYQQKPGQPPKLLIYAASILESGVPDRFSGSGSGTDFTLTISSLQAEDVAVYYCQQSNEDPRTFGGGTKVEIKR
notes: Humanized antibody; also called exemplary anti-OX40 antibody Hu3738; Hu3738 VH.1b / Hu3738 VL.1
[1]
  EC50: 0.024 nM
[2]
  Kd: 42 nM
  koff: 0.042 s⁻¹
Cyno OX40-Fc fusion
  EC50: 0.039 nM
